# Assay results taken from paper PMC6851296, “Atomic-resolution crystal structures of the immune protein conglutinin from cow reveal specific interactions of its binding site with N-acetylglucosamine” (The Journal of Biological Chemistry, 2019).
# Target: the molecule itself
# Assay: SEC; Superdex-75 HR 10/300, Tris buffer with 10 mM EDTA, 1 ml/min; calibrated with alcohol dehydrogenase, BSA, carbonic anhydrase and cytochrome C; nondissociating conditions
protein,measurement,value
"recombinant fragment of bovine conglutinin consisting of the CRD and neck regions (rfBC, residues 199-351 of native conglutinin) (domain or fragment, vector-derived first five residues (GLAEV in conglutinin); bovine conglutinin, neck plus carbohydrate recognition domain, the C-terminal 153 residues Asn-199 to Phe-351; also called trimeric recombinant neck plus CRD conglutinin fragment; recombinant homotrimeric fragment of conglutinin) GSAEANALKQRVTILDGHLRRFQNAFSQYKKAVLFPDGQAVGEKIFKTAGAVKSYSDAEQLCREAKGQLASPRSSAENEAVTQMVRAQEKNAYLSMNDISTEGRFTYPTGEILVYSNWADGEPNNSDEGQPENCVEIFPDGKWNDVPCSKQLLVICEF",stoichiometry N,3
